PMC11980035

Target: PRC2^amKR: PRC2 with EZH2 K510R, K514R, K515R (am-loop lysines mutated to arginines) (human) (UniProt Q15910)

- H3K27me3 generated by PRC2^amKR on mononucleosomes (HMTase assay, western blot) with 400 nM PRC2^CXC added: 50%
Substance: PRC2^CXC: PRC2 with EZH2 K568A/Q570A/K574A/Q575A in the CXC domain, automethylated (from UniProt Q15910-2 1-751; Q15022 80-685; O75530 1-441; Q09028 1-425; Q6ZN18 1-517) (complex)
